In assay [1] the target is human CD24 (human) (UniProt P25063). In words: FACS, 5637 cells. In general terms: In flow cytometry, cells or beads pass a laser one at a time.
The target is the same in assay [2]. Nature of the assay: FACS, MCF7 cells.
For assay [3] the target is unchanged. Nature of the assay: FACS, A549 cells.
Assay [4] shares this target. Nature of the assay: FACS, Nalm1 cells.
For assay [5] the target is unchanged. Nature of the assay: FACS, H1975 cells.
For assay [6] the target is unchanged. Nature of the assay: FACS, HT-29 cells.
Assay [7] has the same target. Nature of the assay: FACS, OCI-LY1 cells.
The target is the same in assay [8]. In words: FACS, OCI-LY7 cells.
The target is the same in assay [9]. In words: FACS, SU-DHL6 cells.
For assay [10] the target is unchanged. Nature of the assay: FACS, 293F-hCD24 cells.
The target is the same in assay [11]. Nature of the assay: FACS, MDA-MB-468 cells.
Assay [12] has the same target. In words: FACS, CHOK1-hCD24 cells.

Sequence of human CD24 (human) (P25063 27-59): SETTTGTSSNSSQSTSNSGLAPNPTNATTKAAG

For mIgG ctrl (antibody), the FACS MFI in [1] amounted to 185; in [2], 187; in assay [3] it was 167; in assay [4] it was 175; in assay [5], 203; in assay [6], 194. Moreover, the FACS MFI came to 197 in [7]; 186 in assay [8]; 188 in assay [9]; 185 in assay [10]; 190 in assay [11]; 177 in assay [12]. In addition, the Max MFI in assay [1] was determined as 185; in assay [2] it was 187; in assay [3], 167; in [4], 175; in assay [5], 203; in [6] it was 194. Further, the Max MFI worked out at 185 in assay [10], 190 in assay [11] and 189 in [12].
